Columns and labels:
[1] = target: the molecule itself; assay: MST; labelled rCP (RED-NHS 647, 50 nM) titrated with unlabelled rCP (from 15 uM); 50 mM Tris pH 6.8, 5 mM MgCl2, 150 mM NaCl; step of self-association not stated
[2] = target: the molecule itself; assay: MST; labelled rCP (RED-NHS 647, 50 nM) titrated with unlabelled rCP (from 15 uM); 50 mM Tris pH 7.5, 5 mM MgCl2, 1000 mM NaCl; step of self-association not stated
[3] = target: the molecule itself; assay: cross-linking; 5 mM DSS, rCP in MST buffer pH 7.5; 5, 10, 15 and 30 min; SDS-PAGE
[4] = target: the molecule itself; assay: MST; labelled rCP (RED-NHS 647, 50 nM) titrated with unlabelled rCP (from 15 uM); 50 mM Tris pH 8.5, 5 mM MgCl2, 150 mM NaCl; step of self-association not stated
[5] = target: the molecule itself; assay: MST; labelled rCP (RED-NHS 647, 50 nM) titrated with unlabelled rCP (from 15 uM); 50 mM Tris pH 7.5, 5 mM MgCl2, 300 mM NaCl; step of self-association not stated
[6] = target: the molecule itself; assay: MST; labelled rCP (RED-NHS 647, 50 nM) titrated with unlabelled rCP (from 15 uM); 50 mM Tris pH 7.5, 5 mM MgCl2, 600 mM NaCl; step of self-association not stated
[7] = target: the molecule itself; assay: MST; labelled rCP (RED-NHS 647, 50 nM) titrated with unlabelled rCP (from 15 uM); 50 mM Tris pH 7.5, 5 mM MgCl2, 150 mM NaCl; step of self-association not stated
[8] = target: the molecule itself; assay: cryo-TEM imaging; empty VLPs assembled without cargo by two-step dialysis; vitrified samples, 120 kV

B1: recombinant brome mosaic virus (BMV) capsid protein (natural protein)
chain: MSTSGTGKMTRAQRRAAARRNRWTARVQPVIVEPLAAGQGKAIKAIAGYSISKWEASSDAITAKATNAMSITLPHELSSEKNKELKVGRVLLWLGLLPSVAGRIKACVAEKQAQAEAAFQVALAVADSSKEVVAAMYTDAFRGATLGDLLNLQIYLYASEAVPAKAVVVHLEVEHVRPTFDDFFTPVYR
notes: brome mosaic virus capsid (coat) protein; In the MST assay one copy was labelled with Monolith NT Protein Labeling Kit RED-NHS 647 and titrated with unlabelled rCP; also called rCP; CP; source: E. coli Rosetta 2(DE3)pLysS, purified (Ni-NTA, TEV digestion, second Ni-NTA); not shown: His tag (inferred from Ni-NTA purification; vector pMCSG48), N-terminal, cleaved
Kd [1]: 6.8 nM
Kd [2]: 111 nM
stoichiometry N [3]: 2
Kd [4]: 175 nM
Kd [5]: 62 nM
Kd [6]: 72 nM
Kd [7]: 35 nM

B2: mutated BMV capsid protein (L123D and F183T) (natural protein, brome mosaic virus)
chain: MSTSGTGKMTRAQRRAAARRNRWTARVQPVIVEPLAAGQGKAIKAIAGYSISKWEASSDAITAKATNAMSITLPHELSSEKNKELKVGRVLLWLGLLPSVAGRIKACVAEKQAQAEAAFQVADAVADSSKEVVAAMYTDAFRGATLGDLLNLQIYLYASEAVPAKAVVVHLEVEHVRPTFDDTFTPVYR
notes: brome mosaic virus capsid (coat) protein with two designed mutations; also called rCP mutant; mutated rCP; source: E. coli Rosetta 2(DE3)pLysS, purified as the wild-type BMV CP (Ni-NTA, TEV digestion, second Ni-NTA); not shown: His tag (inferred from Ni-NTA purification; vector pMCSG48), N-terminal, cleaved
binding result [8]: binds
